What was measured:
Format in all cases: biochemical, E. coli
[1] = tested on: substrate 21-F (His6-tetraCys-X-MBP); test: Fluorescence anisotropy proteolysis assay with substrate 21-F; conditions: initial rate by fluorescence anisotropy, normalized to the rate of the protease with its preferred cognate substrate
Text: (§1) All protease substrates were expressed in E. coli Rosetta pLacI Rare to provide compensation for rare codons (see Kirienko et al. (2004) Biochemistry (Mosc) 69:527-535; available commercially from Novagen, a wholly-owned subsidiary of EMD Biosciences, Inc., Madison, Wis.). The expression was done in 2-L PET bottles (Millard et al. (2003) Protein Expr. Purif. 29:311-320). The protein purification followed typical IMAC purification procedures (see Sambrook & Russell, supra) including elution in an imidazole gradient from 0-350 mM. After SDS-PAGE analysis, appropriate fractions were pooled and desalted into 20 mM phosphate, pH 7.5, containing 100 mM NaCl and 0.3 mM TCEP. […]
(§2) Protease assays were conducted using a combination of 20 μM unlabeled and 40 nM labeled protease substrates unless noted otherwise. […] This decreased the amount of time between mixing and measurement to less than three minutes and allowed the fluorescence anisotropy measured at the first time point to closely approximate the anisotropy of the intact fusion protein. […]
(§3) Fluorescence anisotropy was measured using a Tecan 384 Ultra plate spectrofluorimeter. Excitation was at 485 nm (25 nm bandpass) and emission was measured at 525 nm (20 nm bandpass). […] See J. Lakowicz, “Principles of fluorescence spectroscopy,” Kluwer Academic/Plenum Publishers, New York, 1999. […]

[2] = tested on: substrate 22-F (His6-tetraCys-X-MBP); test: Fluorescence anisotropy proteolysis assay with substrate 22-F; conditions: initial rate by fluorescence anisotropy, normalized to the rate of the protease with its preferred cognate substrate
Text: as §1, §2, §3

[3] = tested on: substrate 23-F (His6-tetraCys-X-MBP); test: Fluorescence anisotropy proteolysis assay with substrate 23-F; conditions: for Relative rate of reaction, substrate 23F: initial rate by fluorescence anisotropy, normalized to the rate of the protease with its preferred cognate substrate
Text: as §1, with “TCEP. Proteins were concentrated to a final concentration of 300-600 μM using centrifugal concentrators. Glycerol (50% v/v) was added to all protease substrates except 26-F and frozen at −20° C. The Arabidopsis targets At3g03410 (expressed from pVP14) and At3g16990 (expressed from pVP15) were flash frozen as drops in liquid nitrogen and stored at −80° C.” for “TCEP.”
as §2
(§4) Fluorescence anisotropy was measured using a Tecan 384 Ultra plate spectrofluorimeter. Excitation was at 485 nm (25 nm bandpass) and emission was measured at 525 nm (20 nm bandpass). […] The observed anisotropy is the sum of the anisotropy of the individual fluorescent components, or robs=Σfiri, where robs, is the observed anisotropy, fi is the fractional fluorescence intensity of component i, and ri is the anisotropy of component i. See J. Lakowicz, “Principles of fluorescence spectroscopy,” Kluwer Academic/Plenum Publishers, New York, 1999. […]

[4] = tested on: substrate 24-F (His6-tetraCys-X-MBP); test: Fluorescence anisotropy proteolysis assay with substrate 24-F; conditions: initial rate by fluorescence anisotropy, normalized to the rate of the protease with its preferred cognate substrate
Text: as §1, §2, §3

[5] = tested on: substrate 25-F (His6-tetraCys-X-MBP); test: Fluorescence anisotropy proteolysis assay with substrate 25-F; conditions: initial rate by fluorescence anisotropy, normalized to the rate of the protease with its preferred cognate substrate
Text: as §1, §2, §3

[6] = tested on: substrate 26-F (His6-tetraCys-X-MBP); test: Fluorescence anisotropy proteolysis assay with substrate 26-F; conditions: for Relative rate of reaction, substrate 26F: initial rate by fluorescence anisotropy, normalized to the rate of the protease with its preferred cognate substrate
Text: as §1, with “TCEP. Proteins were concentrated to a final concentration of 300-600 μM using centrifugal concentrators. Glycerol (50% v/v) was added to all protease substrates except 26-F and frozen at −20° C. The Arabidopsis targets At3g03410 (expressed from pVP14) and At3g16990 (expressed from pVP15) were flash frozen as drops in liquid nitrogen and stored at −80° C.” for “TCEP.”
as §2, §4

[7] = tested on: substrate 21-F (His6-tetraCys-X-MBP); test: SDS-PAGE analysis of proteolysis of substrate 21-F; conditions: incubated 16 h (overnight)
Experimental: FIG. 22 is a photograph of a gel depicting SDS-PAGE analysis of protease substrates incubated with Factor Xa and TEV protease for 16 h. Lane M, molecular weight standards of 31 and 45 kDa. Lanes 1-5, Factor Xa with substrates 21-F, 22-F, 23-F, 24-F and 25-F, respectively. Lanes 6-10, trypsin with substrates 21-F, 22-F, 23-F, 24-F and 25-F, respectively. Lanes 11-14, TEV protease with substrates 21-F, 22-F, 23-F and 24-F, respectively.
The intensity of protein bands in SDS-PAGE gels was determined using Image J-brand software, version 1.30. This is a public domain program that can be obtained from the National Institutes of Health (Bethesda, Md.).
SDS-PAGE analysis with Coomassie staining was performed to further evaluate the predicted low rates of substrate dependent non-specific proteolysis.

| Molecule | Relative rate of reaction, substrate 21F [1] | Relative rate of reaction, substrate 22F [2] | Relative rate of reaction, substrate 23F [3] | Relative rate of reaction, substrate 24F [4] | Relative rate of reaction, substrate 25F [5] | Relative rate of reaction, substrate 26F [6] | Specific reaction rate ([6]; substrate 26-F, slope of initial rate versus protease concentration, errors two standard deviations) | Proteolysis of substrate 21-F by SDS-PAGE with Coomassie staining [7] | Specific reaction rate ([3]; substrate 23-F, per supplier's reported activity unit) |
| --- | --- | --- | --- | --- | --- | --- | --- | --- | --- |
| TEV: tobacco etch virus protease (protein) GESLFKGPRDYNPISSTICHLTNESDGHTTSLYGIGFGPFIITNKHLFRRNNGTLLVQSLHGVFKVKNTTTLQQHLIDGRDMIIIRMPKDFPPFPQKLKFREPQREERICLVTTNFQTKSMSSMVSDTSCTFPSSDGIFWKHWIQTKDGQCGSPLVSTRDGFIVGIHSASNFTNTNNYFTSVPKNFMELLTNQEAQQWVSGWRLNADSVLWGGHKVFMSKPEEPFQPVKEATQLMNELVYSQ | 0.01 | 0.0 | −0.02 | −0.01 | 0.0 | 1 | 17.3±0.7 moles substrate proteolyzed per mole of protease per hour | minor amount of proteolysis | – |
| Enterokinase: commercial protease used for removing fusion tags (protein, UniProt P98072 2-800; P98072 801-1035, looked up) Enteropeptidase non-catalytic …: GSKRSVPSRHRSLTTYEVMFAVLFVILVALCAGLIAVSWLSIQGSVKDAAFGKSHEARGTLKIISGATYNPHLQDKLSVDFKVLAFDIQQMIDDIFQSSNLKNEYKNSRVLQFENGSIIVIFDLLFDQWVSDKNVKEELIQGIEANKSSQLVTFHIDLNSIDITASLENFSTISPATTSEKLTTSIPLATPGNVSIECPPDSRLCADALKCIAIDLFCDGELNCPDGSDEDNKTCATACDGRFLLTGSSGSFEALHYPKPSNNTSAVCRWIIRVNQGLSIQLNFDYFNTYYADVLNIYEGMGSSKILRASLWSNNPGIIRIFSNQVTATFLIQSDESDYIGFKVTYTAFNSKELNNYEKINCNFEDGFCFWIQDLNDDNEWERTQGSTFPPSTGPTFDHTFGNESGFYISTPTGPGGRRERVGLLTLPLDPTPEQACLSFWYYMYGENVYKLSINISSDQNMEKTIFQKEGNYGQNWNYGQVTLNETVEFKVSFYGFKNQILSDIALDDISLTYGICNVSVYPEPTLVPTPPPELPTDCGGPHDLWEPNTTFTSINFPNSYPNQAFCIWNLNAQKGKNIQLHFQEFDLENIADVVEIRDGEGDDSLFLAVYTGPGPVNDVFSTTNRMTVLFITDNMLAKQGFKANFTTGYGLGIPEPCKEDNFQCKDGECIPLVNLCDGFPHCKDGSDEAHCVRLFNGTTDSSGLVQFRIQSIWHVACAENWTTQISDDVCQLLGLGTGNSSVPTFSTGGGPYVNLNTAPNGSLILTPSQQCLEDSLILLQCNYKSCGKKLVTQEVSPK Enteropeptidase catalytic …: IVGGSDSREGAWPWVVALYFDDQQVCGASLVSRDWLVSAAHCVYGRNMEPSKWKAVLGLHMASNLTSPQIETRLIDQIVINPHYNKRRKNNDIAMMHLEMKVNYTDYIQPICLPEENQVFPPGRICSIAGWGALIYQGSTADVLQEADVPLLSNEKCQQQMPEYNITENMVCAGYEAGGVDSCQGDSGGPLMCQENNRWLLAGVTSFGYQCALPNRPGVYARVPRFTEWIQSFLH | 0.5 | 1.3 | 1 | 0.2 | – | 1 | – | – | 0.130±0.007 nmole substrate proteolyzed per unit enzyme per hour |
